According to patent publication US20260184748A1 (University of Pennsylvania, published 2026):
Where no end group is shown, it is not given here.

Experiments:
Experiment in all cases: cell-based or functional assay
DRD2S = DRD2S (UniProt P14416-2 1-414)
C3AR1 = target: T1, C3AR1 (UniProt Q16581 1-482)
T1 sequence (looked up): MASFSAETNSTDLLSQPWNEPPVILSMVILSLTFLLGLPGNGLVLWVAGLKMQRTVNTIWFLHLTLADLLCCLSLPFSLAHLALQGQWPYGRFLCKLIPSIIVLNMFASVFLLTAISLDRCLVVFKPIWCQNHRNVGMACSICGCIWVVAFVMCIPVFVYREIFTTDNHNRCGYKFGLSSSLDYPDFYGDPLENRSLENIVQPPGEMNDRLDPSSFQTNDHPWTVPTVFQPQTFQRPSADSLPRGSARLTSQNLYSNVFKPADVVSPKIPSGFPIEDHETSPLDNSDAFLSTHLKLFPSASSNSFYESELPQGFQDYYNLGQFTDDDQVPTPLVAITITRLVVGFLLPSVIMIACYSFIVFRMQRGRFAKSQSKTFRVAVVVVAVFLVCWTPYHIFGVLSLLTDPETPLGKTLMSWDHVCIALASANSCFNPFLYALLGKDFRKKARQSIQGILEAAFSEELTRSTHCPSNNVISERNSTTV

PTAFR = PTAFR (UniProt P25105 1-342)
Chain of PTAFR (P25105 whole entry): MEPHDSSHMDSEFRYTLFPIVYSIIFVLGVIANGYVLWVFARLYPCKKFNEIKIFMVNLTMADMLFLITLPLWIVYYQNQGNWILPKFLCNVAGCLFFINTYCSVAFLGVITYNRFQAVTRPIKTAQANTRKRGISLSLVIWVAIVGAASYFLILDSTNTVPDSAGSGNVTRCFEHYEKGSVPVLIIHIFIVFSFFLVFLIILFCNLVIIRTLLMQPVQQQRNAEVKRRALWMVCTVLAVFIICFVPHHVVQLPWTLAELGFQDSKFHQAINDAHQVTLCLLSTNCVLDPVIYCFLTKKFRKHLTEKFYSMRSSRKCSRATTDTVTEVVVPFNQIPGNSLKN

HTR2C = target: T2, HTR2C (UniProt P28335 33-458, limits assumed)
T2 sequence (looked up): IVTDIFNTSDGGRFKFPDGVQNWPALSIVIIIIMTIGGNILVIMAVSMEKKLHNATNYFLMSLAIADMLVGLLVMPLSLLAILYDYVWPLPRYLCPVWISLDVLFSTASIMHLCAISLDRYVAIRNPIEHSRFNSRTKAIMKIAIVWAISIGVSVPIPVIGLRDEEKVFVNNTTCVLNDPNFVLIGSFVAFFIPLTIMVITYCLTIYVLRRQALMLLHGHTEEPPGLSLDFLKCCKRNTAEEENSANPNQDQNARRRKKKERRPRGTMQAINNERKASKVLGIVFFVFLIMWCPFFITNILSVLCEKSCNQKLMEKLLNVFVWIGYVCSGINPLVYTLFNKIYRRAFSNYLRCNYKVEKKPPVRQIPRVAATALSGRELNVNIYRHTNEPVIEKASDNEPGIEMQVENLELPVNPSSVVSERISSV

GHSR = GHSR (UniProt Q92847 1-366)
Chain of GHSR (Q92847 whole entry): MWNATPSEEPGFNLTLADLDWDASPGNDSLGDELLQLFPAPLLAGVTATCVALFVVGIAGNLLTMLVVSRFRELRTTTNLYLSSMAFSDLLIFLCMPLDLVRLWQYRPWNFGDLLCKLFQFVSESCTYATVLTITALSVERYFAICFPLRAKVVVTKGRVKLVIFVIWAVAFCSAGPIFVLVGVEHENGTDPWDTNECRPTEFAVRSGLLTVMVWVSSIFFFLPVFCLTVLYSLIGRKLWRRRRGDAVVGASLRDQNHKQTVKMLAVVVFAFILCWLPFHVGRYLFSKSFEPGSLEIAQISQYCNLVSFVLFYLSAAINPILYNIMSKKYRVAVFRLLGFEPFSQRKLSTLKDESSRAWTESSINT

GPR92 = GPR92 (UniProt Q9H1C0 1-372)
Chain of GPR92 (Q9H1C0 whole entry): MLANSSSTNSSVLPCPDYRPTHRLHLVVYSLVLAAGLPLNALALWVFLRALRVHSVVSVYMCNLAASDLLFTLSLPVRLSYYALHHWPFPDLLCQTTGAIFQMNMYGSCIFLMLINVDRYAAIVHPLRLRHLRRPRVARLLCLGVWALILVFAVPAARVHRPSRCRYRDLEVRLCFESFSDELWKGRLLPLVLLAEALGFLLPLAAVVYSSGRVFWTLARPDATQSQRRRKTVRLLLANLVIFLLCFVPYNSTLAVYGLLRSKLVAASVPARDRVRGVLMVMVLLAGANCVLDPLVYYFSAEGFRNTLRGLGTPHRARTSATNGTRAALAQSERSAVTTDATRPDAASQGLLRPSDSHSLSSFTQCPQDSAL

FSHR = target: T3, FSHR (UniProt P23945 18-695)
T3 sequence (looked up): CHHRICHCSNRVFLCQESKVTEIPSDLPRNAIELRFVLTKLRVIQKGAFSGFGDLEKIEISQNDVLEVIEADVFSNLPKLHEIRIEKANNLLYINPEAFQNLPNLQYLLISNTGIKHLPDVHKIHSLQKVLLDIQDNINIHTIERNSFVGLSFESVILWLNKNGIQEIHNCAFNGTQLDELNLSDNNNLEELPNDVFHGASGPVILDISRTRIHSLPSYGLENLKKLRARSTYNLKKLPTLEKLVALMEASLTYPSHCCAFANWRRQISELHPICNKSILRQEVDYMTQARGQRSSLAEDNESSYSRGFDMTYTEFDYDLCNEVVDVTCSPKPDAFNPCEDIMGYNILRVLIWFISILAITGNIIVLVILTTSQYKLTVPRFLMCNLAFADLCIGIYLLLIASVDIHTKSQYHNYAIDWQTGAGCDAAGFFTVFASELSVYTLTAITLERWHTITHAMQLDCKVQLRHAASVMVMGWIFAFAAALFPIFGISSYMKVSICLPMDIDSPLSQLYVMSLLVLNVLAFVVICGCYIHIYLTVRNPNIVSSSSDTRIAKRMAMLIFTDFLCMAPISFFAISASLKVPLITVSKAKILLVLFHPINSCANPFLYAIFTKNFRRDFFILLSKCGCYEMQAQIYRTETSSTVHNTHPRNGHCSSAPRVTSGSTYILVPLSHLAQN

CX3CR1 = target: T4, CX3CR1 (UniProt P49238 1-355)
T4 sequence (looked up): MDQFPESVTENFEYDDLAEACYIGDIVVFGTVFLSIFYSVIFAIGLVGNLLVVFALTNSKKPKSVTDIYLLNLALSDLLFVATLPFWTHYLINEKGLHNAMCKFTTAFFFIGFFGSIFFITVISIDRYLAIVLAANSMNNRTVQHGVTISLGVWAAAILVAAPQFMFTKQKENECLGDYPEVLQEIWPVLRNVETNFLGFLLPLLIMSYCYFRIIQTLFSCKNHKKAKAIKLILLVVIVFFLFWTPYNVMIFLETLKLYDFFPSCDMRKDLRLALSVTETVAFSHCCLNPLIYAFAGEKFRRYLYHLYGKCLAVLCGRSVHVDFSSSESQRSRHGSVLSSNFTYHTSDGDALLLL

ADRA2A = target: T5, ADRA2A (UniProt P08913 1-465)
T5 sequence (looked up): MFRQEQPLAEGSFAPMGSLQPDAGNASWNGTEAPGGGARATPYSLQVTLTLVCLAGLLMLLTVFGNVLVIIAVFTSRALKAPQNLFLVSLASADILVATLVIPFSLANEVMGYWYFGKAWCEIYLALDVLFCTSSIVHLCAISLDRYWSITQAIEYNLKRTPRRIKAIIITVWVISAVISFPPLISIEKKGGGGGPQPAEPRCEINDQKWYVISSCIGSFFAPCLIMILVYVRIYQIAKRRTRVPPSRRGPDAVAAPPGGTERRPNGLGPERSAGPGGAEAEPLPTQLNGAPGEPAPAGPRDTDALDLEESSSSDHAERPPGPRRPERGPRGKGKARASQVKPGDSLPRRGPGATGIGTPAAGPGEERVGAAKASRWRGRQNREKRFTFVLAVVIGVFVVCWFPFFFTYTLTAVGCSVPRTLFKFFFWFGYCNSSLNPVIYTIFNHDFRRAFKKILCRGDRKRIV

Chain of DRD2S (P14416 other isoform, or with tags, fused parts or gaps limits assumed): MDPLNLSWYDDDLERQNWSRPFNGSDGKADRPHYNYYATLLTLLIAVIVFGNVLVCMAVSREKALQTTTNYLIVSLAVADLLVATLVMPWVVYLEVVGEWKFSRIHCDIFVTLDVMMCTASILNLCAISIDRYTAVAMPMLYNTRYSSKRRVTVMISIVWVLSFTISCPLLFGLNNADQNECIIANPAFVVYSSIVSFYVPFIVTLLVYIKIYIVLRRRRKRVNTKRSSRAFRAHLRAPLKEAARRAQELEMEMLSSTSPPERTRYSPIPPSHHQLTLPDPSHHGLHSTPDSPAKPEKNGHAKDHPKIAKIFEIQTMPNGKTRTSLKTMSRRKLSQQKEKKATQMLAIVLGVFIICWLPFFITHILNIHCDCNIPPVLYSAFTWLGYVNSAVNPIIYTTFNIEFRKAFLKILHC

B1: octadecaneuropeptide (ODN) (peptide)
peptide: QATVGDVNTDRPGLLDLK
modifications: also: synthesised on Rink amide resin, C-terminal amide not given here outright
- % Activity, arrestin, antagonist mode, 2.5 uM (DRD2S): -13.4%
- % Activity, arrestin, antagonist mode, 2.5 uM (C3AR1): 4%
- % Activity, arrestin, antagonist mode, 2.5 uM (PTAFR): -7.3%
- % Activity, arrestin, antagonist mode, 2.5 uM (HTR2C): 2.2%
- % Activity, arrestin, antagonist mode, 2.5 uM (GHSR): -7.4%
- % Activity, arrestin, antagonist mode, 2.5 uM (GPR92): 10.6%
- % Activity, arrestin, antagonist mode, 2.5 uM (FSHR): -16.9%
- % Activity, arrestin, antagonist mode, 2.5 uM (CX3CR1): -0.8%
- % Activity, arrestin, antagonist mode, 2.5 uM (ADRA2A): -27.2%
